Data set [1] has as its target T1, VEGF (vascular endothelial growth factor) (UniProt P15692-4 P15692-4:27-191). Kind of data set: competition; ED50, competition ELISA against biotin-labeled VEGF ligand on immobilized VEGF; printed 10^-9 M. The conditions noted are these: chain copies: 2.
Data set [2] concerns the target T1, VEGF (vascular endothelial growth …). Kind of data set: cell_activity; inhibition of HUVEC proliferation with 10 ng/ml VEGF; KS cells (KSY-1) IC50 about 100 nM. The conditions noted are these: chain copies: 2. Here is the method:
The effects of NX278-liposome, scNX278-liposome and NX213 on the proliferation of human umbilical vein endothelial cells (HUVEC) and Kaposi's Sarcoma (KS) cells in tissue culture were examined. HUVECs were grown in the presence of VEGF (10 ng/ml) in IMDM:Ham's F12 (1:1) medium containing 10% fetal calf serum (FCS) and heparin (45 μg/ml). Cells were plated in 24-well gelatin-coated plates at a density of 20,000 cells per well on day zero and treated with the above ligands at concentrations between 0.1 nM to 1 μM on days 1, 2, and 3 (replacing the media along with the ligands). Cell count was performed on day 4. KS cell line KSY-1 was plated in 24-well gelatin coated plates at a density of 7,500–10,000 cells per well on day zero in medium containing RPMI 1640 supplemented with 2% FCS, L-glutamine, penicillin and streptomycin. Nucleic Acid Ligands were added at concentrations between 0.1 nM to 1 μM in fresh medium on day 1, 2, and 3 and the cell count was performed on day 4.

Data set [3] shares this target. Briefly: competition; apparent ED50, competition ELISA; printed 10^-7 M. To be noted: chain copies: 2. As to the method: (§1) NX278-Liposome Complex was prepared by incubating NX-278 (1 mg) (FIG. 1N; SEQ ID NO: 19) with of a mixture of DSPC:cholesterol (50 mg) in 10 mM phosphate (pH 7.4) buffer containing 9% sucrose and sonicated for 15–30 min using a probe-type sonicator until opalescent solution was obtained. The control Nucleic Acid Ligand-Liposome Complex containing a sequence scrambled analog of ligand NX-278 (scNX278) (FIG. 1W; SEQ ID NO:28) was prepared in the same manner. The size of Liposome particles (typically […]), determined in a particle analyzer (Leeds & Northrup Model Microtrack UPA 150, Horsham, Pa.) was similar to those obtained in the absence of the Nucleic Acid Ligand.

Data set [4] has the same target. Kind of data set: 1 uM not inhibitory in guinea pig Miles assay. The conditions noted are these: chain copies: 2. The source says:
The ability of NX278-liposome to inhibit the vascular permeability activity of VEGF in vivo was examined.

Data set [5] shares this target. Kind of data set: competition; not an effective competitor up to 2 uM. The conditions noted are these: chain copies: 2. Here is the method: as §1
For data set [6], the target named is T2, bFGF (basic fibroblast growth factor) (UniProt P09038 P09038:143-288). Kind of data set: binding affinity stated as 1 nM. To be noted: blunt-ended hairpin, Tm 68 C.
The target of data set [7] is T2, bFGF (basic fibroblast growth factor). Kind of data set: 5'-32P binding assay; same affinity as unconjugated 225T3. To be noted: label: 5'-32P; hairpin. Here is the method:
Preparation and Functional Properties of PEG Conjugated and Cholesterol-Derivatized Nucleic Acid Ligands A PEG 3400 conjugate of a Nucleic Acid Ligand retains the binding affinity of the non-conjugated molecule The ability of a bFGF ligand/PEG-3400 conjugate to bind bFGF was tested. Molecule 225T3 (SEQ ID NO: 10), a high affinity DNA ligand to bFGF, was chosen for conjugation with PEG via a primary amine-NHS coupling reaction. […] Ligand 225T3 was modified with a 3'-amino-modifier C7 CPG (Glen Research, Sterling, Va.) using standard DNA synthesis methods and will be referred to as 225T3N (SEQ ID NO:11). 225T3N was reacted with the N-hydroxysuccinimidyl (NHS) active ester of PEG (avg. MW 3400) in 20% (v/v) […] 80% (v/v) 0.5 M sodium bicarbonate buffered at pH 8.5. The resulting conjugate, 225T3N-PEG-3400 (SEQ ID NO: 14), was purified from the free DNA on a 12% polyacrylimide/7 M urea gel. The conjugate was 5' end-labeled with ^32P and a binding assay was performed.

Data set [8] has the same target. Kind of data set: 5'-32P binding assay; identical to 225T3. To be noted: label: 5'-32P; hairpin.

T2 sequence (P09038 143-288, one chain of several): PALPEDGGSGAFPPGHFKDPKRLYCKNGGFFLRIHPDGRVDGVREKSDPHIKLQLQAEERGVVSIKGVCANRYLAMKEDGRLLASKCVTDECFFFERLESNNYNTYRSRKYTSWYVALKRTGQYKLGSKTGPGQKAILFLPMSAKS
T1 sequence (P15692 other isoform, or with tags, fused parts or gaps): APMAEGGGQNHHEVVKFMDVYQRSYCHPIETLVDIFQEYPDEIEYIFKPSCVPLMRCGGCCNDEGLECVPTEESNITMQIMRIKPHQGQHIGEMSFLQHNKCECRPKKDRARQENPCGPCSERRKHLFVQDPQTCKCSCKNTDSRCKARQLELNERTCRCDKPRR

B1: NX213 (mixed)
mixed: TTTTACCCUGAUGGUAGACGCCGGGGUGTTTTT
As to B1, the EC50 – broadly, the concentration that produces a half-maximal response – in data set [1] is around 1 nM.

B2: NX278-liposome (mixed)
mixed: TTTTACCCUGAUGGUAGACGCCGGGGUGTTTTT
modifications: 5'-dialkylglycerol (DAG), embedded in DSPC:cholesterol liposome
On to B2, for which the IC50 (in general, the concentration that gives 50% inhibition) in data set [2] was around 300 nM. In addition, in data set [3], the EC50 was around 100 nM.

B3: scNX278-liposome (mixed)
mixed: TTTTGUCGGUACGGAGUGGACCGUCACGTTTTT
modifications: dialkylglycerol (DAG), embedded in DSPC:cholesterol liposome
For the molecule B3, the binding result in data set [4] was “no binding”. In data set [5], this molecule registered a concentration giving a half-maximal response (EC50) above 2000 nM.

B4: 225T3 (ssDNA)
DNA: GCGGGGCTACGTACCGGGGCTTTGTAAAACCCCGC
With B4, the Kd (in general, the free concentration of one partner at which half of the binding sites on the other are occupied at equilibrium, for simple one-to-one binding) in data set [6] was determined as 1 nM.

B5: 225T3N-PEG-3400 (ssDNA)
DNA: GCGGGGCTACGTACCGGGGCTTTGTAAAACCCCGC
modifications: 3'-amino modifier C7 coupled to PEG (avg. MW 3400)
B5 showed a Kd in data set [7] of 1 nM.

B6: 225T3-Cholesterol (ssDNA)
DNA: GCGGGGCTACGTACCGGGGCTTTGTAAAACCCCGC
modifications: 3'-tetraethyleneglycol cholesterol
The molecule B6 returned a Kd in data set [8] of 1 nM.

(Values after patent US6147204, “Nucleic acid ligand complexes” (NeXstar Pharmaceuticals, Inc.).)
